According to paper PMC9463536 (The Journal of Biological Chemistry, 2022):

B1: COP-3 (CpE Obstructing Protein 3), synthetic antigen-binding fragment (Fab, V domains shown)
VH: EVQLVESGGGLVQPGGSLRLSCAASGFNFYSSSIHWVRQAPGKGLEWVAYISSYSGYTYYADSVKGRFTISADTSKNTAYLQMNSLRAEDTAVYYCARGYGYFDYNFSVGYALDYWGQGTLVTVSS
VL: DIQMTQSPSSLSASVGDRVTITCRASQSVSSAVAWYQQKPGKAPKLLIYSASSLYSGVPSRFSGSRSGTDFTLTISSLQPEDFATYYCQQSHPWYYPITFGQGTKVEIK
notes: also called sFab; source: E. coli BL21-Gold, purified (MabSelect SuRe, Resource S)
B2: COP-2 (CpE Obstructing Protein 2), synthetic antigen-binding fragment (Fab, V domains shown)
VH: EVQLVESGGGLVQPGGSLRLSCAASGFNFSSSSIHWVRQAPGKGLEWVASISSYSGYTSYADSVKGRFTISADTSKNTAYLQMNSLRAEDTAVYYCARYWSWYNSSHYIYSALDYWGQGTLVTVSS
VL: DIQMTQSPSSLSASVGDRVTITCRASQSVSSAVAWYQQKPGKAPKLLIYSASSLYSGVPSRFSGSRSGTDFTLTISSLQPEDFATYYCQQSYEWAPVTFGQGTKVEIK
notes: as for B1

Assays:
cCpE-His10 (wild type) = target: T1, cCpE-His10 (wild type) (Clostridium perfringens, UniProt P01558); assay: BLI; conditions: both partners purified
T1 construct: not shown: His10, C-terminal, kept

[1] = target: T2, human claudin-4, untagged (human, UniProt O14493); assay: SEC; conditions: both partners purified
T2 construct: also called hCLDN-4
T2 sequence (O14493 whole entry): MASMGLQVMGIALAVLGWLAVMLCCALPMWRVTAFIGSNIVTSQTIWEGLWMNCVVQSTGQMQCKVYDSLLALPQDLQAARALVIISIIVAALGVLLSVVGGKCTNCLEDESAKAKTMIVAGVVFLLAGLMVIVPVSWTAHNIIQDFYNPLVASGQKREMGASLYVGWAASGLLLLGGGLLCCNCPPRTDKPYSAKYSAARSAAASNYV

Binder	Kd (cCpE-His10 (wild type))	koff (cCpE-His10 (wild type))	kon (cCpE-His10 (wild type))	binding result [1]
B1	138 ± 6.2 nM	0.001 s⁻¹	10000 M⁻¹ s⁻¹	no binding
B2	67.6 ± 11.7 nM	0.00048 s⁻¹	7200 M⁻¹ s⁻¹	no binding
